Experimental data reported in patent US7563610 (Takeda / Millennium, dated 2009).

Target: the molecule itself
Test: X-ray crystal structure (homodimer in the asymmetric unit)

B1: IspA (farnesyl pyrophosphate synthase) from E. coli, full length with non-cleavable N-terminal six histidine tag (enzyme)
chain: MGSDKIIHHHHHHTLMDFPQQLEACVKQANQALSRFIAPLPFQNTPVVETMQYGALLGGKRLRPFLVYATGHMFGVSTNTLDAPAAAVECIHAYSLIHDDLPAMDDDDLRRGLPTCHVKFGEANAILAGDALQTLAFSILSDADMPEVSDRDRISMISELASASGIAGMCGGQALDLDAEGKHVPLDALERIHRHKTGALIRAAVRLGALSAGDKGRRALPVLDKYAESIGLAFQVQDDILDVVGDTATLGKRQGADQQLGKSTYPALLGLEQARKKARDLIDDARQSLKQLAEQSLDTSALEALADYIIQRNK
notes: Two copies form the dimer in the crystal; also called FPPS
B1: binds.
